Consider four molecules from PMC10312132.

Assay in all cases: EMSA
For orientation: A gel shift assay detects complexes by their altered migration in electrophoresis.

Data set [1] concerns the target T1, RAD52 full-length (Homo sapiens, UniProt P43351 1-418).
T1 sequence: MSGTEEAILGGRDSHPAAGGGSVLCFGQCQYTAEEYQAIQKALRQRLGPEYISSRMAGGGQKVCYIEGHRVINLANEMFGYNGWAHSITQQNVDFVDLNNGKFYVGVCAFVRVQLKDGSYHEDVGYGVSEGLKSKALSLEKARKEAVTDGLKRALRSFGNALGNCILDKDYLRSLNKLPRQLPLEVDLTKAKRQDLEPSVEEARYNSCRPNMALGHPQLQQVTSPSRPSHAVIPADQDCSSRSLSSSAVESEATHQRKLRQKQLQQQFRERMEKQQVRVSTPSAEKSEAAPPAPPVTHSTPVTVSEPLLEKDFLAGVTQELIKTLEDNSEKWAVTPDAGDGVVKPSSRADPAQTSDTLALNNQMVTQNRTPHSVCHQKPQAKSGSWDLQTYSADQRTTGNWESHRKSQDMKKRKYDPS

The target of data set [2] is T1, RAD52 full-length. The source holds these as a separate data set.
In data set [3] the target is T1, RAD52 full-length. The source holds these as a separate data set.
Data set [4] addresses T1, RAD52 full-length. This is another data set of the same source.

Where two headings read alike, the source gives them in different places.

B1: ISE#4 40-mer ssDNA (ssDNA)
DNA: TGCGGATGGCTTAGAGCTTAATTGCTGAATCTGGTGCTGT
In the case of B1, the binding result in data set [1] is “binds”.

B2: ISE#3 40-mer ssRNA (ssRNA)
RNA: UGCGGAUGGCUUAGAGCUUAAUUGCUGAAUCUGGUGCUGU
Turning to B2, in data set [2], the binding result is recorded as “binds”.

B3: CA#1 40-mer ssRNA (ssRNA)
RNA: AAUACCGCAUCAGGAAAUUGUAAGCGUUAAUAUUUUGUUA
Take B3: the binding result in data set [3] is recorded as “binds”.

B4: ISE#1 40-mer ssDNA (ssDNA)
DNA: ACAGCACCAGATTCAGCAATTAAGCTCTAAGCCATCCGCA
As to B4, the binding result in data set [4] is given as “binds”.
